# Reference: patent publication US20210309732A1 (ELIXIRON IMMUNOTHERAPEUTICS HONG KONG, published 2021)
# B1: 1D2 SDR mutant HK32D (antibody, IgG1, V domains shown)
# VH: QVQLVQSGAEVKKPGASVKVSCEASGYTFTDDYLHWVRQAPGQGLEWMAWINPKSGGTFYAQNFKGRVTVTRDTSINTAYLELTSLRLDDTSTYYCARGRDYYDQGAADLWGQGTMVTVSS
# VL: DIQLTQSPSSLSASVGDRVTITCRASQGINSVLAWYQQKPGKAPKLLLYAASKLESGVPSRFSGSGSGTDYTLTISSLQPEDFGTYYCQQYYSPVRTFGQGTKVEIKR
# notes: also called X2 D
# B2: 1D2 SDR mutant HK32E (antibody, IgG1, V domains shown)
# VH: QVQLVQSGAEVKKPGASVKVSCEASGYTFTDEYLHWVRQAPGQGLEWMAWINPKSGGTFYAQNFKGRVTVTRDTSINTAYLELTSLRLDDTSTYYCARGRDYYDQGAADLWGQGTMVTVSS
# VL: DIQLTQSPSSLSASVGDRVTITCRASQGINSVLAWYQQKPGKAPKLLLYAASKLESGVPSRFSGSGSGTDYTLTISSLQPEDFGTYYCQQYYSPVRTFGQGTKVEIKR
# notes: also called X2 E
# B3: 1D2 SDR mutant HK32F (antibody, IgG1, V domains shown)
# VH: QVQLVQSGAEVKKPGASVKVSCEASGYTFTDFYLHWVRQAPGQGLEWMAWINPKSGGTFYAQNFKGRVTVTRDTSINTAYLELTSLRLDDTSTYYCARGRDYYDQGAADLWGQGTMVTVSS
# VL: DIQLTQSPSSLSASVGDRVTITCRASQGINSVLAWYQQKPGKAPKLLLYAASKLESGVPSRFSGSGSGTDYTLTISSLQPEDFGTYYCQQYYSPVRTFGQGTKVEIKR
# notes: also called X2 F
# B4: 1D2 SDR mutant HK32H (antibody, IgG1, V domains shown)
# VH: QVQLVQSGAEVKKPGASVKVSCEASGYTFTDHYLHWVRQAPGQGLEWMAWINPKSGGTFYAQNFKGRVTVTRDTSINTAYLELTSLRLDDTSTYYCARGRDYYDQGAADLWGQGTMVTVSS
# VL: DIQLTQSPSSLSASVGDRVTITCRASQGINSVLAWYQQKPGKAPKLLLYAASKLESGVPSRFSGSGSGTDYTLTISSLQPEDFGTYYCQQYYSPVRTFGQGTKVEIKR
# notes: also called X2 H
# B5: 1D2 SDR mutant HK32L (antibody, IgG1, V domains shown)
# VH: QVQLVQSGAEVKKPGASVKVSCEASGYTFTDLYLHWVRQAPGQGLEWMAWINPKSGGTFYAQNFKGRVTVTRDTSINTAYLELTSLRLDDTSTYYCARGRDYYDQGAADLWGQGTMVTVSS
# VL: DIQLTQSPSSLSASVGDRVTITCRASQGINSVLAWYQQKPGKAPKLLLYAASKLESGVPSRFSGSGSGTDYTLTISSLQPEDFGTYYCQQYYSPVRTFGQGTKVEIKR
# notes: also called X2 L
# B6: 1D2 SDR mutant HK32N (antibody, IgG1, V domains shown)
# VH: QVQLVQSGAEVKKPGASVKVSCEASGYTFTDNYLHWVRQAPGQGLEWMAWINPKSGGTFYAQNFKGRVTVTRDTSINTAYLELTSLRLDDTSTYYCARGRDYYDQGAADLWGQGTMVTVSS
# VL: DIQLTQSPSSLSASVGDRVTITCRASQGINSVLAWYQQKPGKAPKLLLYAASKLESGVPSRFSGSGSGTDYTLTISSLQPEDFGTYYCQQYYSPVRTFGQGTKVEIKR
# notes: also called X2 N
# B7: 1D2 SDR mutant HK32P (antibody, IgG1, V domains shown)
# VH: QVQLVQSGAEVKKPGASVKVSCEASGYTFTDPYLHWVRQAPGQGLEWMAWINPKSGGTFYAQNFKGRVTVTRDTSINTAYLELTSLRLDDTSTYYCARGRDYYDQGAADLWGQGTMVTVSS
# VL: DIQLTQSPSSLSASVGDRVTITCRASQGINSVLAWYQQKPGKAPKLLLYAASKLESGVPSRFSGSGSGTDYTLTISSLQPEDFGTYYCQQYYSPVRTFGQGTKVEIKR
# notes: also called X2 P
# B8: 1D2 SDR mutant HK32Q (antibody, IgG1, V domains shown)
# VH: QVQLVQSGAEVKKPGASVKVSCEASGYTFTDQYLHWVRQAPGQGLEWMAWINPKSGGTFYAQNFKGRVTVTRDTSINTAYLELTSLRLDDTSTYYCARGRDYYDQGAADLWGQGTMVTVSS
# VL: DIQLTQSPSSLSASVGDRVTITCRASQGINSVLAWYQQKPGKAPKLLLYAASKLESGVPSRFSGSGSGTDYTLTISSLQPEDFGTYYCQQYYSPVRTFGQGTKVEIKR
# notes: also called X2 Q
# B9: 1D2 SDR mutant HK32R (antibody, V domains shown)
# VH: QVQLVQSGAEVKKPGASVKVSCEASGYTFTDRYLHWVRQAPGQGLEWMAWINPKSGGTFYAQNFKGRVTVTRDTSINTAYLELTSLRLDDTSTYYCARGRDYYDQGAADLWGQGTMVTVSS
# VL: DIQLTQSPSSLSASVGDRVTITCRASQGINSVLAWYQQKPGKAPKLLLYAASKLESGVPSRFSGSGSGTDYTLTISSLQPEDFGTYYCQQYYSPVRTFGQGTKVEIKR
# notes: not the clone labelled 32R, which is light chain V32R; also called X2 R
# B10: 1D2 SDR mutant HK32S (antibody, IgG1, V domains shown)
# VH: QVQLVQSGAEVKKPGASVKVSCEASGYTFTDSYLHWVRQAPGQGLEWMAWINPKSGGTFYAQNFKGRVTVTRDTSINTAYLELTSLRLDDTSTYYCARGRDYYDQGAADLWGQGTMVTVSS
# VL: DIQLTQSPSSLSASVGDRVTITCRASQGINSVLAWYQQKPGKAPKLLLYAASKLESGVPSRFSGSGSGTDYTLTISSLQPEDFGTYYCQQYYSPVRTFGQGTKVEIKR
# notes: also called X2 S
# B11: 1D2 SDR mutant HK32T (antibody, IgG1, V domains shown)
# VH: QVQLVQSGAEVKKPGASVKVSCEASGYTFTDTYLHWVRQAPGQGLEWMAWINPKSGGTFYAQNFKGRVTVTRDTSINTAYLELTSLRLDDTSTYYCARGRDYYDQGAADLWGQGTMVTVSS
# VL: DIQLTQSPSSLSASVGDRVTITCRASQGINSVLAWYQQKPGKAPKLLLYAASKLESGVPSRFSGSGSGTDYTLTISSLQPEDFGTYYCQQYYSPVRTFGQGTKVEIKR
# notes: also called X2 T
# B12: 1D2 SDR mutant HK32V (antibody, IgG1, V domains shown)
# VH: QVQLVQSGAEVKKPGASVKVSCEASGYTFTDVYLHWVRQAPGQGLEWMAWINPKSGGTFYAQNFKGRVTVTRDTSINTAYLELTSLRLDDTSTYYCARGRDYYDQGAADLWGQGTMVTVSS
# VL: DIQLTQSPSSLSASVGDRVTITCRASQGINSVLAWYQQKPGKAPKLLLYAASKLESGVPSRFSGSGSGTDYTLTISSLQPEDFGTYYCQQYYSPVRTFGQGTKVEIKR
# notes: also called X2 V
# B13: 1D2 SDR mutant HK54A (antibody, IgG1, V domains shown)
# VH: QVQLVQSGAEVKKPGASVKVSCEASGYTFTDKYLHWVRQAPGQGLEWMAWINPASGGTFYAQNFKGRVTVTRDTSINTAYLELTSLRLDDTSTYYCARGRDYYDQGAADLWGQGTMVTVSS
# VL: DIQLTQSPSSLSASVGDRVTITCRASQGINSVLAWYQQKPGKAPKLLLYAASKLESGVPSRFSGSGSGTDYTLTISSLQPEDFGTYYCQQYYSPVRTFGQGTKVEIKR
# notes: also called X3 A
# B14: 1D2 SDR mutant HK54C (antibody, IgG1, V domains shown)
# VH: QVQLVQSGAEVKKPGASVKVSCEASGYTFTDKYLHWVRQAPGQGLEWMAWINPCSGGTFYAQNFKGRVTVTRDTSINTAYLELTSLRLDDTSTYYCARGRDYYDQGAADLWGQGTMVTVSS
# VL: DIQLTQSPSSLSASVGDRVTITCRASQGINSVLAWYQQKPGKAPKLLLYAASKLESGVPSRFSGSGSGTDYTLTISSLQPEDFGTYYCQQYYSPVRTFGQGTKVEIKR
# notes: also called X3 C
# B15: 1D2 SDR mutant HK54E (antibody, IgG1, V domains shown)
# VH: QVQLVQSGAEVKKPGASVKVSCEASGYTFTDKYLHWVRQAPGQGLEWMAWINPESGGTFYAQNFKGRVTVTRDTSINTAYLELTSLRLDDTSTYYCARGRDYYDQGAADLWGQGTMVTVSS
# VL: DIQLTQSPSSLSASVGDRVTITCRASQGINSVLAWYQQKPGKAPKLLLYAASKLESGVPSRFSGSGSGTDYTLTISSLQPEDFGTYYCQQYYSPVRTFGQGTKVEIKR
# notes: also called X3 E
# Target: T1, recombinant human GM-CSF (human, UniProt P04141 18-144)
# T1 construct: also called rhGM-CSF; CSF2
# Assay: ELISA on coated rhGM-CSF, UBA relative to 1D2
# Text: Some of the residues in the CDRs are essential for epitope binding affinity and/or specificity. A number of computational methods were developed to detect these functional residues, generally known as ‘specificity-determining resides’ (SDRs). […] Based on the analysis, 7 amino acid residues in VH and 3 amino acid residues in VL were selected as the SDRs. The residues are labeled X₁ to X₁₀ for the ease of reference. The SDRs on VH are: Heavy chain D31 (HD31) (X₁), HK32 (X₂), HK54(X₃), HR100 (X₄), HY102 (X₅), HY103 (X₆) and HQ105 (X₇). The SDRs on VL are Light chain V32 (LV32) (X₈), LP94 (X₉) and LV95 (X₁₀). The SDRs were subsequently mutated by site-directed mutagenesis to other amino acids to generate mutant VH or VL clones. HEK293 cells were co-transfected with a vector encoding a mutant VH paired with a vector encoding a wild type VL or a vector encoding a wild type VH paired with a vector encoding a mutant VL. The antibody clones were harvested from the culture medium. The binding affinity of each antibody clone to human GM-CSF was tested by ELISA. The ELISA was done according to the following procedures. ELISA plate was coated with 50 μl of rhGM-CSF at 1 μg/mL. The plate was washed with 200 μl PBST for three times, followed by blocking with 1% BSA for 1 hour at room temperature. The antibody clones to be tested were diluted at 1:12000. 100 μl of the diluted antibodies were added to the cell at 100 μl/well. The plate was incubated at room temperature for 1 hour. The plate was then washed and incubated with 1:5000 diluted goat-anti-human secondary antibody conjugated with HRP at room temperature for one hour. The ELISA assay was developed with 100 μl developing buffer containing H₂O₂-Amplx Red per well in the dark for 5 min and the fluorescence intensity was read at Ex.530/Em.590 nm, with cutoff at 570 nm. The Unit Binding Activity (UBA) of each sample was calculated as the fluorescence signal/antibody clone dilution factor.
# T1 sequence (P04141 18-144 limits assumed): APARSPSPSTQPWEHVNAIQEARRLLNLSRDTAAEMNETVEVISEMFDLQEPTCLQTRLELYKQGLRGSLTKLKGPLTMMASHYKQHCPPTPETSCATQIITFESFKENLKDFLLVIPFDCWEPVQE
row,Binder,binding affinity % of 1D2
1,B1,90%
2,B2,94%
3,B3,63%
4,B4,76%
5,B5,60%
6,B6,97%
7,B7,88%
8,B8,91%
9,B9,90%
10,B10,78%
11,B11,74%
12,B12,90%
13,B13,117%
14,B14,76%
15,B15,113%
